Measured values from patent US20230203155A1 (ALMAC DISCOVERY, published 2023).

T1: Peptide 1 (human)
T1 construct: linear ROR1 ECD peptide
T1 peptide: YMESLHMQGEIENQI

T2: Peptide 2 (human)
T2 construct: linear ROR1 ECD peptide; insoluble in PBS
T2 peptide: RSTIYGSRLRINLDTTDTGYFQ

T3: Peptide 3 (human)
T3 construct: linear ROR1 ECD peptide
T3 peptide: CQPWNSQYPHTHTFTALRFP

T4: Peptide 4 (human)
T4 construct: linear ROR1 ECD peptide
T4 peptide: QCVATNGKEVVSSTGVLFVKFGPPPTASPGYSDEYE

B1: Peptide 5 (peptide)
peptide: RSTIYGSRLRIRNLDTTDTGYFQ
notes: linear ROR1 ECD peptide
B2: CPF7-[G4S]5-CPF7 his myc (VNAR)
chain: TRVDQTPRTATKETGESLTINCVVTGAKYGLFATYWYRKNPGSSNQERISISGRYVESVNKRTMSFSLRIKDLTVADSATYYCKAVFMPQHWHPAAHWYDGAGTVLTVNGGGGSGGGGSGGGGSGGGGSGGGGSTRVDQTPRTATKETGESLTINCVVTGAKYGLFATYWYRKNPGSSNQERISISGRYVESVNKRTMSFSLRIKDLTVADSATYYCKAVFMPQHWHPAAHWYDGAGTVLTVNQASGAHHHHHHGAEFEQKLISEEDL
notes: VNAR homodimer; also called CPF7-CPF7 dimer
B3: BA11-2V HisMyc (VNAR)
chain: TRVDQSPSSLSASVGDRVTITCVLTDTSYPLYSTYWYRKNPGSSNKEQISISGRYSESVNKGTKSFTLTISSLQPEDSATYYCRAMSTNIWTGDGAGTKVEIKGGGGSGGGGSGGGGSGGGGSGGGGSTRVDQTPRTATKETGESLTINCVLTDTSYGLYSTSWFRKNPGTTDWERMSIGGRYVESVNKGAKSFSLRIKDLTVADSATYYCKAQSLAISTRSYWYDGAGTVLTVNQASGAHHHHHHGAEFEQKLISEEDL
B4: P3A1 his myc (VNAR)
VNAR: TRVDQTPRTATKETGESLTINCVLTDTSYGLYSTSWFRKNPGTTDWERMSIGGRYVESVNKGAKSFSLRIKDLTVADSATYYCKAREARHPWLRQWYDGAGTVLTVNQ
notes: VNAR; also called P3A1 6xHis myc
B5: P3A1 his (VNAR)
VNAR: B4 VNAR
notes: VNAR; also called P3A1 6xHis
B6: E7 his myc (VNAR)
VNAR: TRVDQTPRTATKETGESLTINCVVTGAKYGLAATYWYRKNPGSSNQERISISGRYVESVNKRTMSFSLRIKDLTVADSATYYCKAYPWAMWGQWYDGAGTVLTVNQ
notes: VNAR
B7: P3A1 dimer, no tag (VNAR)
chain: TRVDQTPRTATKETGESLTINCVLTDTSYGLYSTSWFRKNPGTTDWERMSIGGRYVESVNKGAKSFSLRIKDLTVADSATYYCKAREARHPWLRQWYDGAGTVLTVNGGGGSGGGGSGGGGSGGGGSGGGGSTRVDQTPRTATKETGESLTINCVLTDTSYGLYSTSWFRKNPGTTDWERMSIGGRYVESVNKGAKSFSLRIKDLTVADSATYYCKAREARHPWLRQWYDGAGTVLTVN
B8: P3A1-[G4S]5-P3A1 his myc (VNAR)
chain: TRVDQTPRTATKETGESLTINCVLTDTSYGLYSTSWFRKNPGTTDWERMSIGGRYVESVNKGAKSFSLRIKDLTVADSATYYCKAREARHPWLRQWYDGAGTVLTVNGGGGSGGGGSGGGGSGGGGSGGGGSTRVDQTPRTATKETGESLTINCVLTDTSYGLYSTSWFRKNPGTTDWERMSIGGRYVESVNKGAKSFSLRIKDLTVADSATYYCKAREARHPWLRQWYDGAGTVLTVNQASGAHHHHHHGAEFEQKLISEEDL
notes: VNAR homodimer by genetic fusion; also called P3A1-P3A1; P3A1 dimer
B9: 2V mFc (Fc fusion)
chain: TRVDQTPRTATKETGESLTINCVLTDTSYGLYSTSWFRKNPGTTDWERMSIGGRYVESVNKGAKSFSLRIKDLTVADSATYYCKAQSLAISTRSYWYDGAGTVLTVNGGGGSGGGGSGGGGSEPRGPTIKPCPPCKCPAPNLLGGPSVFIFPPKIKDVLMISLSPIVTCVVVDVSEDDPDVQISWFVNNVEVHTAQTQTHREDYNSTLRVVSALPIQHQDWMSGKEFKCKVNNKDLPAPIERTISKPKGSVRAPQVYVLPPPEEEMTKKQVTLTCMVTDFMPEDIYVEWTNNGKTELNYKNTEPVLDSDGSYFMYSKLRVEKKNWVERNSYSCSVVHEGLHNHHTTKSFSRTPGK
notes: control

Key:
[1] = molecular target: T5, B1 VNAR with C-terminal His6Myc tag; assay: competition ELISA: VNAR pre-incubated with peptide 5, residual binding to coated huROR1-Fc [continued]
T5 construct: VNAR, E. coli; also called B1 his myc; B1HisMyc monomer
Protocol: (§1) In brief, ELISA method as follows. Wells coated with 100 ng antigen and incubated, covered, at room temperature for 2 hr. Plates washed 3×400 ul per well with PBST (PBS+0.05% Tween 20 (v/v)), then blocked with 4% skimmed milk powder (w/v) in PBST for 1 hour at 37° C. Plates washed as before plus additional wash in PBS alone. Binding proteins were diluted in 4% milk PBST and incubated overnight at 4° C. Plates washed 3× with PBST, 3×PBS and binding detected using appropriate secondary detection antibody in 4% milk PBST, room temperature 1 hour. […] Rabbit anti-Mouse IgG H&L, HRP (Abcam #ab97046) [0360] Mouse anti-polyHis, HRP (Sigma #A7058)
(§2) Competition assays were conducted as described in the methods with all four peptides reconstituted in PBS.

P3A1 his myc = molecular target: B4; assay: as above
Protocol: as §1, §2

D3 his myc = molecular target: T6, D3 his myc; assay: as above
T6 construct: VNAR; made in E. coli and in HEK293 (expression system under assay); also called D3 WT
Protocol: as §1, §2

D3-[G4S]5-D3 his myc = molecular target: T7, D3-[G4S]5-D3 his myc; assay: as above
T7 construct: VNAR homodimer by genetic fusion; also called D3-D3; D3 dimer
Protocol: as §1, §2

[2] = molecular target: T8, human ROR1 on the surface of ROR1hi human cancer cell lines (human, UniProt Q01973 30-937); assay: flow cytometry, A549 (ROR1hi) cells
T8 construct: whole, on cells; Cell line is named under assay; also called cell surface ROR1
Protocol: (§3) Adherent human cancer cells were detached from tissue culture flasks by incubating with 0.1% EDTA/PBS solution at 37° C. for −10 minutes or until cells detached easily. Cells were re-suspended in 5 ml ice-cold PBS/2% FCS in 15 ml tubes and centrifuged at 1500 rpm for 5 mins at 4° C. Supernatant was removed and the cell pellet re-suspended in 1-2 ml of PBS/2% FCS. A cell count was performed using a Z1 Coulter Particle Counter (Beckman Coulter) and 5×10\hat{ }5 cells were aliquoted per test sample. Cells were incubated with 100 μl of either VNAR (His₆Myc tagged), VNAR-Fc molecules or ROR1 mAb and IgG controls for 1 hour on ice. Excess VNAR, VNAR-Fc or mAb was removed by adding 5 ml of ice-cold PBS/2% FCS, followed by centrifugation at 1500 rpm for 5 mins at 4° C. The supernatant was removed and a second wash performed by re-suspending the cell pellet in 1 ml of ice-cold PBS/2% FCS and adding a further 4 ml of ice-cold PBS/2% FCS. Samples were again centrifuged at 1500 rpm for 5 min at 4° C. Supernatant was removed and excess liquid removed by blotting the tubes on tissue paper. […] Cells were incubated with chosen secondary antibody for 30 min on ice. Cells were washed to remove excess antibody as described earlier. […]

human serum albumin = molecular target: T9, human serum albumin (human, UniProt P02768 25-609); assay: ELISA at fixed concentration
T9 construct: also called HSA

[3] = molecular target: T10, recombinant human ROR1 (hROR1), construct not stated (human, UniProt Q01973 30-403, limits assumed); assay: SPR, hROR1 on chip
[4] = molecular target: T11, human ROR1-hFc fusion protein (extracellular domain) (human); assay: SPR, ROR1-hFc on chip
T11 construct: Whole entry 'human ROR1-Fc (CHO)'; also called hROR1; huROR1-Fc
T11 sequence (chain, as listed by the source limits assumed): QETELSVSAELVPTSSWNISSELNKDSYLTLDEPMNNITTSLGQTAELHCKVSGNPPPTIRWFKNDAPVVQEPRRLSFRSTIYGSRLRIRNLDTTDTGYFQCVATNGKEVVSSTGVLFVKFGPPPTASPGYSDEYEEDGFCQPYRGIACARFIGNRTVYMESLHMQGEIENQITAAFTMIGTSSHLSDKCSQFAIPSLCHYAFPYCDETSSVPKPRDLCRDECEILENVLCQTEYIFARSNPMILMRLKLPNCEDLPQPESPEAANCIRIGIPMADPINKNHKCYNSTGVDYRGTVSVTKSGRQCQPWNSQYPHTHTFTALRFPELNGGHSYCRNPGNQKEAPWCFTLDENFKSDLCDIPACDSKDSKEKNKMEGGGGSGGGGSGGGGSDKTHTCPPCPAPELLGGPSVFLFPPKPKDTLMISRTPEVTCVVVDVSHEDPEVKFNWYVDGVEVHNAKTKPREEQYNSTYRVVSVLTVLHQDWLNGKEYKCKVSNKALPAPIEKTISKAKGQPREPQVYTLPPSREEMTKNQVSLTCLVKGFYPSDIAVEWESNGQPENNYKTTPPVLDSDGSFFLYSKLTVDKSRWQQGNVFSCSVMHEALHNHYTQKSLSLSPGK
Protocol: (§4) Binding kinetics were determined using a Pioneer Surface Plasmon Resonance (SPR) instrument (SensiQ/Pall ForteBio). […] VNARs and VNAR-Fc molecules were tested at various concentrations and the Ka (M⁻¹s⁻¹), Kd (s⁻¹) and KD (nM) values were determined using QDat software (SensiQ/Pall ForteBio).

[5] = molecular target: T11, human ROR1-hFc fusion protein …; assay: SPR, ROR1-hFc on chip; remark: listed apart in the source
Protocol: as §4

[6] = molecular target: T12, rat ROR1-Fc fusion protein (rat); assay: SPR, rat ROR1 on chip
T12 construct: Whole entry 'rat ROR1-Fc (CHO)'; also called rROR1
T12 sequence (chain, as listed by the source limits assumed): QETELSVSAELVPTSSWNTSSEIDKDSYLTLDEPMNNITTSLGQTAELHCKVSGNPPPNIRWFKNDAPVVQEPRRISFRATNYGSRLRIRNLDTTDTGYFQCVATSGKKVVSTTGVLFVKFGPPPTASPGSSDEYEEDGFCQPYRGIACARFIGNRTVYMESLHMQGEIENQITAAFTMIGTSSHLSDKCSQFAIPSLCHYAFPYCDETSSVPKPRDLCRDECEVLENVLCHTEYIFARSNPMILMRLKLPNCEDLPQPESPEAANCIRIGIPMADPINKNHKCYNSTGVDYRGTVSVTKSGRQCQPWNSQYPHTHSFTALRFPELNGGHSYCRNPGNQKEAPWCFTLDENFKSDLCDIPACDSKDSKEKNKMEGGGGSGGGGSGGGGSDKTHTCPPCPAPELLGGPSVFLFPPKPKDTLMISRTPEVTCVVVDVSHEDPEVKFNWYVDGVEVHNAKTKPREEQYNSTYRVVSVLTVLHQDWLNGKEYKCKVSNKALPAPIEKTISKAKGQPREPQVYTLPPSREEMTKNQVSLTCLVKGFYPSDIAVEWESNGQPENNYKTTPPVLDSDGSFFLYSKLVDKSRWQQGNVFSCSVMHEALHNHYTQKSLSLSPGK
Protocol: as §4

[7] = molecular target: T13, mouse ROR1-Fc fusion protein (mouse); assay: SPR, mouse ROR1 on chip
T13 construct: Whole entry 'mouse ROR1-Fc (CHO)'; also called mROR1
T13 sequence (chain, as listed by the source limits assumed): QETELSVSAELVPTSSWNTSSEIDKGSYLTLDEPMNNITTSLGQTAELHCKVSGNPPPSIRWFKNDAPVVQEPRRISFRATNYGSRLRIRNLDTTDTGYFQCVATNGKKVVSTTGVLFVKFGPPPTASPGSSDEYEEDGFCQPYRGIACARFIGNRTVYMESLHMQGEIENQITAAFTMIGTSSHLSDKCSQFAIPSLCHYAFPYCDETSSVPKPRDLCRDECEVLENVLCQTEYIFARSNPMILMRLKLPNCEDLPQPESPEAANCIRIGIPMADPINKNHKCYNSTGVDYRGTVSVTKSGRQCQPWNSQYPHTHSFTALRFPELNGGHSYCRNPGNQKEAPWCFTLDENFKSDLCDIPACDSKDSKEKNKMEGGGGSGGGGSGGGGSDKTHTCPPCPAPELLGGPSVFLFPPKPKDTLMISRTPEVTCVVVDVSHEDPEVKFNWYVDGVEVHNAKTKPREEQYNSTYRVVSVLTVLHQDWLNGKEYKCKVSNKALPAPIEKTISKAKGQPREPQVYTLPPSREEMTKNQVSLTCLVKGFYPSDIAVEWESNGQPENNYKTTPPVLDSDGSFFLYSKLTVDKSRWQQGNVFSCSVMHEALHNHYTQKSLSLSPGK
Protocol: as §4

Fz-Kr-Fc = molecular target: T14, Fz-Kr-Fc; assay: analytical SEC and SDS-PAGE of fractions
T14 construct: also called human ROR1 (FZKR domains)-Fc (CHO)
T14 sequence (Fc fusion chain, as listed by the source): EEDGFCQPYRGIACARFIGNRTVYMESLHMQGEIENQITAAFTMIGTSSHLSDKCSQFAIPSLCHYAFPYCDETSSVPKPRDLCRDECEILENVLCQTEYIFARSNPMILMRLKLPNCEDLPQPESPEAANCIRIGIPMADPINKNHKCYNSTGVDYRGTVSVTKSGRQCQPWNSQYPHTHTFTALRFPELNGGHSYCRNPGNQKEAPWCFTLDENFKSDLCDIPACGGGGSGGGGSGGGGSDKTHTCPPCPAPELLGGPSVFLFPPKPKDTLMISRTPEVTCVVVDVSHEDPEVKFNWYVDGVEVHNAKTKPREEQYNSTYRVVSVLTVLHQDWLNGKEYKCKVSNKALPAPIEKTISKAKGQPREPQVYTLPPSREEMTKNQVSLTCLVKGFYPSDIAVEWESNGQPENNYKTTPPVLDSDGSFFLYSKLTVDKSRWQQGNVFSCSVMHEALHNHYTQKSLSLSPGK
Protocol: 1:1 VNAR:ROR1 domain or ROR1 domain pairs was incubated on ice for 30 mins then run on a the Superdex 200 increase 10/300 column (GE Healthcare) in PBS and fractions analysed by SDS-PAGE.
Complex formation was then assessed using analytical SEC.

[8] = molecular target: T10, recombinant human ROR1 (hROR1), …; assay: SPR, hROR1 on chip with competitor B1 pre-captured
Protocol: (§5) Competition of binding studies were completed using SPR. […] FC2 was used as the reference channel. […] Binding kinetics were determined using QDat software.

[9] = molecular target: T15, human ROR2-hFc fusion protein (extracellular domain) (human); assay: direct ELISA, panel Binding to human ROR2-Fc
T15 construct: Whole entry 'human ROR2-Fc (CHO)'; also called hROR2
T15 sequence (chain, as listed by the source limits assumed): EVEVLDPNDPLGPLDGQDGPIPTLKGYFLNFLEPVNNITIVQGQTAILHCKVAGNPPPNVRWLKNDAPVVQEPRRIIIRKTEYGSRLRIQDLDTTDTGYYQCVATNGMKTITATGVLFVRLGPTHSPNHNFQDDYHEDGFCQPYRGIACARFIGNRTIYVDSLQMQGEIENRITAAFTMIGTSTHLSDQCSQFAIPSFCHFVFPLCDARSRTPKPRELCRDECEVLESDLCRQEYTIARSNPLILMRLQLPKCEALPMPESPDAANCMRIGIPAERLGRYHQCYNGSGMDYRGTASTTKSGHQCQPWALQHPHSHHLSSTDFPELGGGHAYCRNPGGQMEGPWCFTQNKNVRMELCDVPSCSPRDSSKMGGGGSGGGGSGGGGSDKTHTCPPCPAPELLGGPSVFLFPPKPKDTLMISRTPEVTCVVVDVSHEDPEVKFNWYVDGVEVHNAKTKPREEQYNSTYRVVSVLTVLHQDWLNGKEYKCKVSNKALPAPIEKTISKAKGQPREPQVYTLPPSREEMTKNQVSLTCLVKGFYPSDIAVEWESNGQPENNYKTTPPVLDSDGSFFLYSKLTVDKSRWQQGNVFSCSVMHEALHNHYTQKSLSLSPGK
Protocol: as §1

Peptide 5 = molecular target: B1; assay: direct ELISA on coated peptide 5 [continued]
Protocol: as §1

Peptide 1 = molecular target: T1, Peptide 1; assay: direct ELISA on coated peptide (in PBS), panel P3A1 direct binding ELISA
Peptide 2 = molecular target: T2, Peptide 2; assay: as above
Peptide 3 = molecular target: T3, Peptide 3; assay: as above
Peptide 4 = molecular target: T4, Peptide 4; assay: as above
[10] = molecular target: T16, human ROR1 (FZ domain)-Fc (human); assay: direct ELISA on coated Frizzled domain, panel Binding of P3A1 to human ROR1 domains
T16 construct: also called Fz-Fc; Frizzle domain
T16 sequence (chain, as listed by the source limits assumed): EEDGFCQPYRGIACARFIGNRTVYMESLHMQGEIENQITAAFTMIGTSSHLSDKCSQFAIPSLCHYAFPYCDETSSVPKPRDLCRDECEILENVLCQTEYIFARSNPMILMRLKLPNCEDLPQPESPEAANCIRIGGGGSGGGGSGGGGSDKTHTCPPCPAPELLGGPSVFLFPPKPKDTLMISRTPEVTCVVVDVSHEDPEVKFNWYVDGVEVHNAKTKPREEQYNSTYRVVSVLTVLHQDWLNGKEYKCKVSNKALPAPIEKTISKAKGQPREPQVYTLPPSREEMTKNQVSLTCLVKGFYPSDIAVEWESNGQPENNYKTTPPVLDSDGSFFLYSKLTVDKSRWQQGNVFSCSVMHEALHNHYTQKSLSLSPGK

[11] = molecular target: T15, human ROR2-hFc fusion protein …; assay: SPR, ROR2-hFc on chip
[12] = molecular target: T15, human ROR2-hFc fusion protein …; assay: SPR, ROR2-hFc on chip; remark: listed apart in the source
Protocol: as §4
(§6) Binding kinetics were determined using a SPR (as previously described) or using Biolayer interferometry (K2 Octet instrument/Pall ForteBio). […] VNARs and VNAR-Fc molecules were tested at various concentrations and the Ka (M−1s−1), Kd (s−1) and KD (nM) values were determined using the Octet data analysis HT software (Pall ForteBio).

[13] = molecular target: T8, human ROR1 on the surface of ROR1hi …; assay: flow cytometry on A549 (ROR1hi) cells, PE-anti Myc tag Ab
Protocol: FIG. 9: Cell surface binding of VNAR (His₆Myc tag) molecules to A549 (ROR1^hi) lung cancer cells by flow cytometry.
as §3

[14] = molecular target: T10, recombinant human ROR1 (hROR1), …; assay: SPR, hROR1 on chip; remark: listed apart in the source
Protocol: as §5

[15] = molecular target: T11, human ROR1-hFc fusion protein …; assay: Octet or SPR, hROR1
Protocol: as §4, §6

[16] = molecular target: T11, human ROR1-hFc fusion protein …; assay: SPR, ROR1-hFc on chip; remark: listed apart in the source
Protocol: as §4
(§7) The ability of the VNAR-MMAE conjugates and VNAR-fluorescein conjugates to bind to human ROR1 ECD was determined by SPR using the procedures described above.

[17] = molecular target: T15, human ROR2-hFc fusion protein …; assay: SPR, ROR2-hFc on chip; remark: listed apart in the source
Protocol: as §4, §7

[18] = molecular target: T11, human ROR1-hFc fusion protein …; assay: SPR, human ROR1 ECD-Fc on chip;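 note: SPR binding kinetics of VNAR and VNAR-Fc molecules run at a range of concentrations over immobilised target, rate and affinity constants fitted with QDat software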
Protocol: as §4
Thermal stability assays used Applied Biosystems StepOne Real Time PCR system with the Protein Thermal Shift™ dye kit (Thermo). The assay mix was set up so that the protein was at a final concentration of 20 OA in 20 μL. 5 μL of Thermal Shift™ buffer was added alongside 2.5 uL 8× Thermal Shift™ Dye. Assays were run using the StepOne software and data analysed using Protein Thermal Shift™ software. All data are from first derivative analysis.

[19] = molecular target: T8, human ROR1 on the surface of ROR1hi …; assay: flow cytometry, A549 (ROR1hi) cells, 4°C
[20] = molecular target: T10, recombinant human ROR1 (hROR1), …; assay: SPR, hROR1 on chip with competitor P3A1 dimer pre-captured
Protocol: as §5

[21] = molecular target: T11, human ROR1-hFc fusion protein …; assay: SPR, ROR1-hFc on chip; remark: listed apart in the source
Protocol: as §4
(§8) Using the procedures outlined above the binding of VNAR-Fc fusions to human, mouse and rat ROR1 and human ROR2 were determined by SPR.

[22] = molecular target: T15, human ROR2-hFc fusion protein …; assay: SPR, ROR2-hFc on chip; remark: listed apart in the source
Protocol: as §4, §8

Binder: B1
- binding result [1]: no binding (tested: 1000 nM)
- binding result (P3A1 his myc): no binding (tested: 1000 nM)
- binding result (D3 his myc): no binding (tested: 1000 nM)
- binding result (D3-[G4S]5-D3 his myc): no binding (tested: 1000 nM)

Binder: B2
- binding result [2]: binds

Binder: B3
- binding result (human serum albumin): binds

Binder: B4
- Kd [3]: 15.9 nM
- koff [3]: 0.0411 s⁻¹
- kon [3]: 2.58e+06 M⁻¹ s⁻¹
- Kd [4]: 25.6 nM
- koff [4]: 0.025 s⁻¹
- kon [4]: 980000 M⁻¹ s⁻¹
- Kd [5]: 19.1 nM
- koff [5]: 0.0442 s⁻¹
- kon [5]: 2.47e+06 M⁻¹ s⁻¹
- Kd [6]: 17.7 nM
- koff [6]: 0.045 s⁻¹
- kon [6]: 2.86e+06 M⁻¹ s⁻¹
- Kd [7]: 14.3 nM
- koff [7]: 0.0408 s⁻¹
- kon [7]: 2.95e+06 M⁻¹ s⁻¹
- binding result (Fz-Kr-Fc): binds
- Kd [8]: 16.4 nM
- koff [8]: 0.032 s⁻¹
- kon [8]: 1.94e+06 M⁻¹ s⁻¹
- binding result [9]: no binding (tested: 10 ug/ml)
- binding result (Peptide 5): no binding
- binding result (Peptide 1): no binding (tested: 1000 ng/ml)
- binding result (Peptide 2): no binding (tested: 1000 ng/ml)
- binding result (Peptide 3): no binding (tested: 1000 ng/ml)
- binding result (Peptide 4): no binding (tested: 1000 ng/ml)
- binding result [10]: binds

Binder: B5
- Kd [4]: 7.8 nM
- koff [4]: 0.0206 s⁻¹
- kon [4]: 2.92e+06 M⁻¹ s⁻¹
- binding result [11]: no binding

Binder: B6
- Kd [5]: 11.1 nM
- koff [5]: 0.0118 s⁻¹
- kon [5]: 1.11e+06 M⁻¹ s⁻¹
- binding result [12]: no binding
- Kd [7]: 1.4 nM
- koff [7]: 0.002 s⁻¹
- kon [7]: 1.41e+06 M⁻¹ s⁻¹
- binding result [13]: binds

Binder: B7
- Kd [4]: 0.36 nM
- koff [4]: 0.000598 s⁻¹
- kon [4]: 1.67e+06 M⁻¹ s⁻¹
- binding result [11]: no binding

Binder: B8
- Kd [3]: 0.385 nM
- koff [3]: 0.000628 s⁻¹
- kon [3]: 1.63e+06 M⁻¹ s⁻¹
- Kd [14]: 0.538 nM
- koff [14]: 0.00141 s⁻¹
- kon [14]: 2.62e+06 M⁻¹ s⁻¹
- Kd [15]: 0.3 nM
- Kd [4]: 0.35 nM
- koff [4]: 0.000637 s⁻¹
- kon [4]: 2.08e+06 M⁻¹ s⁻¹
- Kd [5]: 0.3 nM
- koff [5]: 0.00112 s⁻¹
- kon [5]: 4.9e+06 M⁻¹ s⁻¹
- Kd [6]: 0.57 nM
- koff [6]: 0.00173 s⁻¹
- kon [6]: 3.18e+06 M⁻¹ s⁻¹
- Kd [16]: 1.61 nM
- koff [16]: 0.00296 s⁻¹
- kon [16]: 1.86e+06 M⁻¹ s⁻¹
- binding result [17]: no binding
- Kd [7]: 0.396 nM
- koff [7]: 0.00145 s⁻¹
- kon [7]: 4.17e+06 M⁻¹ s⁻¹
- Kd [18]: 0.3 nM
- koff [18]: 0.00117 s⁻¹
- kon [18]: 3.78e+06 M⁻¹ s⁻¹
- Median YL1-PE [19]: 2340
- koff [8]: 0.000536 s⁻¹
- kon [8]: 1.52e+06 M⁻¹ s⁻¹
- Kd [20]: 3.08 nM
- koff [20]: 0.00226 s⁻¹
- kon [20]: 734000 M⁻¹ s⁻¹

Binder: B9
- binding result [21]: no binding
- binding result [22]: no binding
